# Patent publication US20240270821A1, “GIP/GLP1/GCG TRI-RECEPTOR AGONISTS AND USES THEREOF” (priority 2023, published 2024)
# T1: human GIP receptor (human) (UniProt P48546)
# T1 sequence (looked up): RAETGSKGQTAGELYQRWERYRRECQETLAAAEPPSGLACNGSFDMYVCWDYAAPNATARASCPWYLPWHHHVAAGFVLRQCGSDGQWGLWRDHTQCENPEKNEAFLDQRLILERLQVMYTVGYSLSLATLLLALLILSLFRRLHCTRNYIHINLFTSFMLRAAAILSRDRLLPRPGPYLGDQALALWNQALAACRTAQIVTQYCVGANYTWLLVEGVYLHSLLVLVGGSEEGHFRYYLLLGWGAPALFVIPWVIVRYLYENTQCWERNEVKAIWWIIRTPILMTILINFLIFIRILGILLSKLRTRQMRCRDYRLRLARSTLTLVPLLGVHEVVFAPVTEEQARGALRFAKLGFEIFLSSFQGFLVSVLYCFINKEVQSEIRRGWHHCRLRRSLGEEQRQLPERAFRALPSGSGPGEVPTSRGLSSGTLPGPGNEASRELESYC
# Assays:
# Assay in all cases: cell-based or functional assay
# hGLP-1R = hGLP-1R (Homo sapiens, UniProt P43220)
# [1] = molecular target: T1, human GIP receptor (human)
# [2] = molecular target: human GLP-1R (SNAP-GLP-1R expressed in HEK293 cells) (human) (UniProt P43220)
# [3] = molecular target: human glucagon receptor (human) (UniProt P47871)
# Sequence of human glucagon receptor (human) (P47871 26-477): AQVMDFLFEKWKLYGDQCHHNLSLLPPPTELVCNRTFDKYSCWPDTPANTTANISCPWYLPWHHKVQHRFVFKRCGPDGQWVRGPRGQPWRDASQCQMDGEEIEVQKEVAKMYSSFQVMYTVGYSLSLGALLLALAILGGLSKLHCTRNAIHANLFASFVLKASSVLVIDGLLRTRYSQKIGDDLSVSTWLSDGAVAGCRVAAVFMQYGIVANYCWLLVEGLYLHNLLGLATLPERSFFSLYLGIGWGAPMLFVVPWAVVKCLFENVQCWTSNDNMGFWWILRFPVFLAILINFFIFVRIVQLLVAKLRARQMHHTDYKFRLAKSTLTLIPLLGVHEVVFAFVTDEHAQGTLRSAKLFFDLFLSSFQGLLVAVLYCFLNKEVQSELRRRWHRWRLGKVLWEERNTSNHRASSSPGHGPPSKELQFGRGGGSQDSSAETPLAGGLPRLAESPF
# Sequence of hGLP-1R (P43220 24-463): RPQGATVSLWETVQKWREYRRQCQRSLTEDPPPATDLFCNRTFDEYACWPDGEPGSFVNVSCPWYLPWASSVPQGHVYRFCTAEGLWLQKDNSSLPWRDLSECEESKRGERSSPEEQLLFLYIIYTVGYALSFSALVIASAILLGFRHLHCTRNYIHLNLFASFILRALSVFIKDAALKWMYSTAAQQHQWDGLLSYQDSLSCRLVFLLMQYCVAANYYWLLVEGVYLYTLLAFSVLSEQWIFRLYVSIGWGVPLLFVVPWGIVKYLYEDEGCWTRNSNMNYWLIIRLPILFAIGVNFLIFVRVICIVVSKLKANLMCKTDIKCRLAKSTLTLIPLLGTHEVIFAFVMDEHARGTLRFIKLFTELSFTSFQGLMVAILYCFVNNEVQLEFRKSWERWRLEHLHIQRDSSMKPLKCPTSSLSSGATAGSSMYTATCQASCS
# Sequence of human GLP-1R (SNAP-GLP-1R expressed in HEK293 cells) (human) (P43220 24-463): as above
Binder,Relative cAMP EC50 (hGLP-1R) [nM],"cAMP Rel EC50, nM (1% HSA) (hGLP-1R) [nM]",Relative cAMP EC50 [1] [nM],"cAMP Rel EC50, nM (1% HSA) [1] [nM]",GLP1R Internalization EC50 [2] [nM],Internalization % TOP [2] [%],Relative cAMP EC50 [3] [nM],"cAMP Rel EC50, nM (1% HSA) [3] [nM]",cAMP Rel EC50 (in the presence of 1% HSA) (hGLP-1R) [nM],cAMP Rel EC50 (in the presence of 1% HSA) [1] [nM],cAMP Rel EC50 (in the presence of 1% HSA) [3] [nM]
YXQGTFTSDFSQXLDKKAQXAFIEYLIEXGESSGAPPPSGE (acylated; synthetic construct; SITE 2: note = 2-Aminoisobutyric Acid; SITE 13: note = alpha-methyl-leucine; SITE 17: note = Lysine is chemically modified through conjugation of the epsilon-amino group of the Lysine side chain with (2-[2-(2-Amino-ethoxy)-ethoxy]-acetyl)-(gamma-Glu)-CO-(CH2) 16-CO2H; SITE 20: n) [Example 233],0.874,223,0.0884,28.1,24.8,41.8,2.25,453,–,–,–
YXQGTFTSDFSXXLDKKAQXAFIEYLLEXGPSSXAPPPSGS (acylated; synthetic construct; SITE 2: note = 2-Aminoisobutyric Acid; SITE 12: note = L-ornithine; SITE 13: note = alpha-methyl-leucine; SITE 17: note = Lysine is chemically modified through conjugation of the epsilon-amino group of the Lysine side chain with (2-[2-(2-Amino-ethoxy)-ethoxy]-acetyl)-(gamma-Glu)) [Example 238],2.71,262,0.0909,8.78,32.1,38.2,2.78,334,–,–,–
YXQGTFTSDFSXXLDKKAQXAFIEYLLEXGPSSGXPPPSGS (acylated; synthetic construct; SITE 2: note = 2-Aminoisobutyric Acid; SITE 12: note = L-ornithine; SITE 13: note = alpha-methyl-leucine; SITE 17: note = Lysine is chemically modified through conjugation of the epsilon-amino group of the Lysine side chain with (2-[2-(2-Amino-ethoxy)-ethoxy]-acetyl)-(gamma-Glu)) [Example 239],2.9,419,0.0503,12,72.6,42.9,2.14,693,–,–,–
YXQGTFTSDFSXXLDKKAQXAFIEYLLEXGHSSGAPPPSGS (non-natural residues; C18 diacid-γGlu-AEEA on Lys; C-terminal amide; synthetic construct; SITE 2: note = 2-Aminoisobutyric Acid; SITE 12: note = L-ornithine; SITE 13: note = alpha-methyl-leucine; SITE 17: note = Lysine is chemically modified through conjugation of the epsilon-amino group of the Lysine side chain with (2-[2-(2-Amino-ethoxy)-ethoxy]-acetyl)-(gamma-Glu)) [Example 241],2.3,–,0.0748,–,64.4,37.6,2.71,–,–,–,–
YXQGTFTSDFSXXLDKKAQXAFIEYLLEXGXSSGAPPPSGS (acylated; synthetic construct; SITE 2: note = 2-Aminoisobutyric Acid; SITE 12: note = L-ornithine; SITE 13: note = alpha-methyl-leucine; SITE 17: note = Lysine is chemically modified through conjugation of the epsilon-amino group of the Lysine side chain with (2-[2-(2-Amino-ethoxy)-ethoxy]-acetyl)-(gamma-Glu)) [Example 242],3.42,242,0.0916,5.94,56,38.2,3.5,484,–,–,–
"YXQGTFTSDFSXXLDKKAQXAFIEWLLEGGPSSGAPPPTGS (acylated Lys, C-terminal amide, non-natural residues; synthetic construct; SITE 2: note = 2-Aminoisobutyric Acid; SITE 12: note = L-ornithine; SITE 13: note = alpha-methyl-leucine; SITE 17: note = Lysine is chemically modified through conjugation of the epsilon-amino group of the Lysine side chain with (2-[2-(2-Amino-ethoxy)-ethoxy]-acetyl)-(gamma-Glu)) [Example 250]",2.08,–,0.154,–,97,45,3.81,–,194,11.7,201
"YXQGTFTSDFSXXLDKKAQXAFIEYLLEAGPSSGHPPPSGS (non-natural residues (Aib, Orn, αMeL); lipidated Lys; C-terminal amide; synthetic construct; SITE 2: note = 2-Aminoisobutyric Acid; SITE 12: note = L-ornithine; SITE 13: note = alpha-methyl-leucine; SITE 17: note = Lysine is chemically modified through conjugation of the epsilon-amino group of the Lysine side chain with (2-[2-(2-Amino-ethoxy)-ethoxy]-acetyl)2-(gamma-Glu)) [Example 253]",2.2,–,0.115,–,81.6,55.2,6.62,–,355,26.6,963
YXQGTFTSDFSXXLDKKAQXAFIEYLLEAGPSSGXPPPSGS (non-natural residues; lipidated Lys (AEEA)2-γGlu-C18 diacid; C-term amide; synthetic construct; SITE 2: note = 2-Aminoisobutyric Acid; SITE 12: note = L-ornithine; SITE 13: note = …; SITE 17: note = Lysine is chemically modified through conjugation of the epsilon-amino group of the Lysine side chain with (2-[2-(2-Amino-ethoxy)-ethoxy]-acetyl)2-(gamma-Glu)) [Example 254],3.08,–,0.121,–,31.9,47.8,4.9,–,265,21.4,767
YXQGTFTSDFSXXLDKKAQXAFIEYLLEAGPSSGHPPPSGH (non-natural residues; acylated Lys; C-terminal amide; synthetic construct; SITE 2: note = 2-Aminoisobutyric Acid; SITE 12: note = L-ornithine; SITE 13: note = alpha-methyl-leucine; SITE 17: note = Lysine is chemically modified through conjugation of the epsilon-amino group of the Lysine side chain with (2-[2-(2-Amino-ethoxy)-ethoxy]-acetyl)2-(gamma-Glu)) [Example 255],1.9,–,0.107,–,47.1,51.8,5.48,–,272,21.9,883
YXQGTFTSDFSXXLDKKAQXAFIEYLLEAGPSSGHPPPSGX (non-natural residues; acylated Lys C18 diacid; C-term amide; synthetic construct; SITE 2: note = 2-Aminoisobutyric Acid; SITE 12: note = L-ornithine; SITE 13: note = alpha-methyl-leucine; SITE 17: note = Lysine is chemically modified through conjugation of the epsilon-amino group of the Lysine side chain with (2-[2-(2-Amino-ethoxy)-ethoxy]-acetyl)2-(gamma-Glu)) [Example 256],2.87,–,0.176,–,87.8,43.5,5.71,–,235,17.4,625
"YXQGTFTSDFSXXLDKKAQXAFIEYLLEXGPSSGAPPPSGT (Aib, Orn, alpha-methyl-Leu, lipidated Lys, C-terminal amide; synthetic construct; SITE 2: note = 2-Aminoisobutyric Acid; SITE 12: note = L-ornithine; SITE 13: note = alpha-methyl-leucine; SITE 17: note = Lysine is chemically modified through conjugation of the epsilon-amino group of the Lysine side chain with (gamma-Glu)-(2-[2-(2-Amino-ethoxy)-ethoxy]-acetyl)) [Example 276]",2.61,–,0.0708,–,237,68.4,2.82,–,103,6.28,113
YXQGTFTSDFSXXLDKKAQXAFIEYLLEXGPSSGAPPPSGT (C-terminal amide; lysine acylated with AEEA-(γ-Glu)2-C18 diacid; synthetic construct; SITE 2: note = 2-Aminoisobutyric Acid; SITE 12: note = L-ornithine; SITE 13: note = alpha-methyl-leucine; SITE 17: note = Lysine is chemically modified through conjugation of the epsilon-amino group of the Lysine side chain with (2-[2-(2-Amino-ethoxy)-ethoxy]-acetyl)-(gamma-Glu)) [Example 278],4.11,–,0.0963,–,251,68.6,4.45,–,241,7.69,274
